# Laboratory results taken from PMC10182996.
# Target: CPn0677-His (recombinant full-length CPn0677 with C-terminal 10His tag) (Chlamydia pneumoniae GiD)
# Experiment: SEC; Superdex 200 Increase 10/300 GL, 4 °C, 0.5 ml/min, 5.2 mg CPn0677 (5 mg/ml) in PBS pH 6.0, against standard proteins
substance,measurement,value
CPn0677-His (recombinant full-length CPn0677 with C-terminal 10His tag) (natural protein),stoichiometry N,2
